Laboratory results reported in patent US20210395322A1 (OSR, published 2021).

Target: T1, Noggin (UniProt Q13253 28-232, limits assumed)
T1 sequence (looked up): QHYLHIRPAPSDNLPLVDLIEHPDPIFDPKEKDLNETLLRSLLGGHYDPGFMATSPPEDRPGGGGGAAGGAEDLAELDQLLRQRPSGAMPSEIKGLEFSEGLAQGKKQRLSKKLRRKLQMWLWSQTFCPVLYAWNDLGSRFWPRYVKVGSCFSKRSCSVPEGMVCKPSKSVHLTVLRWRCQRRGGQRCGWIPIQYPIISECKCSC
Experiment: size-exclusion chromatography of the AB204 and Noggin mixture

binding result: no binding
B1: AB204 (ligand)
chain: MQAKHKQRKRLKSSCKRHPLYVDFSDVGWNDWIIAPSGYHANYCDGECPFPLADHLNSTNHAIVQTLVNSVNSKIPKACCVPTKLRPMSMLYYDDGQNIIKKDIQNMIVEECGCS
notes: also called Noggin-insensitive chimera AB204
